Here are results for one molecule from publication PMC9940316 (2023).

The target of the assay is human plasma IgG1 (human, UniProt P01857 = IgG part). Description: SPR; pH 7.

B1: FcγRIIa (receptor)
chain: QAAAPPKAVLKLEPPWINVLQEDSVTLTCQGARSPESDSIQWFHNGNLIPTHTQPSYRFKANNNDSGEYTCQTGQTSLSDPVHLTVLSEWLVLQTPHLEFQEGETIMLRCHSWKDKPLVKVTFFQNGKSQKFSHLDPTFSIPQANHSHSGDYHCTGNIGYTLFSSKPVTITVQVPSMGSSSPMGIIVAVVIATAVAAIVAAVVALIYCRKKRISANSTDPVKAAQFEPPGRQMIAIRKRQLEETNNDYETADGGYMTLNPRAPTDDDKNIYLTLPPNDHVNSNN
B1 had a Kd of 1300 nM. This counts as single-digit micromolar.
